Source: US7186695

Molecular target: 70 kDa N-terminal fragment of fibronectin

B1: Recombinant human thioredoxin produced in E. coli (protein)
chain: MVKQIESKTAFQEALDAAGDKLVVVDFSATWCGPCKMIKPFFHSLSEKYSNVIFLEVDVDDCQDVASECEVKCMPTFQFFKKGQKVGEFSGANKEKLEATINELV
thioredoxin-mediated reduction of the fibronectin fragment (free thiols labelled with MPB, SDS-PAGE, streptavidin peroxidase blot): thioredoxin reduced one or more protein disulfide bonds in the 70 kDa N-terminal fragment of fibronectin
